Source: patent US20180291353A1, “MONOFUNCTIONAL ALDEHYDE AND ALCOHOL DEHYDROGENASES FOR PRODUCTION OF FUELS AND COMMODITY CHEMICALS” (The Regents of the University of California, priority 2015, published 2018)

What was measured:
[1] = test system: butanol production pathway; test: Butanol and ethanol production in E. coli MC1.24 (quintuple KO) with bifunctional or monofunctional dehydrogenases (FIG. 5); type: cell-based; conditions: E. coli MC1.24, FIG. 5
Description: FIG. 5 illustrates genetically engineered improvement of a butanol production pathway composed of monofunctional aldehyde and alcohol dehydrogenases. The fuel titer of either butanol or ethanol in E. coli cells expressing the biosynthetic pathway shown in FIG. 6A with various particular alcohol and/or aldehyde dehydrogenases is shown. Specifically, E. coli MC1.24 (quintuple KO) was transformed with pT533-phaA.HBD, pBBR2-aceE.F.lpd and 1: pCWO.trc-ter-adhE2, 2: pCDF3-aldh16, 3: pCWori-ter-aldh16.CaADH, or 4: pCWO.trc-ter-aldh16.CaADH as indicated.
. The cultures were grown at 37° C. in a rotary shaker (200 r.p.m.) and induced with IPTG (1.0 mM) at OD600=0.35-0.45. At this time, the growth temperature was reduced to 30° C., and the culture flasks were sealed with Parafilm M (Pechiney Plastic Packaging) to prevent product evaporation for aerobic cultures. Anaerobic cultures were sealed and the headspace was sparged with argon for 5 minutes immediately follow induction. Aerobic cultures were unsealed for 10 to 30 min every 24 h then resealed with Parafilm M, and additional glucose (1% (w/v)) was added 1 day post-induction. Samples were quantified after 3 d of cell culture.
Samples (2 ml) were removed from cell culture and cleared of biomass by centrifugation at 20,817 g for 2 min using an Eppendorf 5417R centrifuge. The supernatant or cleared medium sample was then mixed in a 9:1 ratio with an aqueous solution containing the isobutanol internal standard (10,000 mg l^−1). These samples were then analyzed on a Trace GC Ultra (Thermo Scientific) using an HP-5MS column (0.25 mm×30 m, 0.25 μM film thickness, J & W Scientific). The oven program was as follows: 75° C. for 3 min, ramp to 300° C. at 45° C. min^−1, 300° C. for 1 min. n-Butanol was quantified by flame ionization detection (FID) (flow: 350 ml min^−1 air, 35 ml min^−1 H2 and 30 ml min^−1 helium). Samples containing n-butanol levels below 500 mg 1^−1 were requantified after extraction of the cleared medium sample or standard (500 μl) with toluene (500 μl) containing the isobutanol internal standard (100 mg 1^−1) using a Digital Vortex Mixer (Fisher) for 5 min set at 2,000. The organic layer was then quantified using the same GC parameters with a DSQII single-quadrupole mass spectrometer (Thermo Scientific) using single-ion monitoring (m/z 41 and 56) concurrent with full scan mode (m/z 35-80). Samples were quantified relative to a standard curve of 2, 4, 8, 16, 31, 63, 125, 250, 500 mg 1^−1 n-butanol for MS detection or 125, 250, 500, 1,000, 2,000, 4,000, 8,000 mg 1^−1 n-butanol for FID detection. Standard curves were prepared freshly during each run and normalized for injection volume using the internal isobutanol standard (100 or 1,000 mg 1^−1 for MS and FID, respectively). […]

[2] = test system: n-butanol biosynthetic pathway; test: Butanol and ethanol fuel titer in E. coli DH1 expressing the n-butanol pathway with AdhE2 variants or homologs (FIG. 2, FIG. 3); type: cell-based; conditions: E. coli DH1, compared with WT AdhE2
Description: The fuel titer of butanol in E. coli cells expressing the biosynthetic pathway shown in FIG. 6A with various particular AdhE2 variants incorporating amino acid substitutions from the AdhE2 superfamily is shown. The x-axis labels indicate the particular AdhE2 variant being expressed in the E. coli, with wild-type AdhE2 also shown for comparison. In each figure, E. coli DH1 was transformed with pT5T33-phaA.HBD-crt and pCDF3-ter-AdhE2 variant as indicated. FIG. 2A illustrates the butanol production for AdhE2 variants #76930 to #76978. FIG. 2B illustrates the butanol production for AdhE2 variants #76979 to #77025, and also includes WT AdhE2 (GI 499193180). AdhE2 and variants thereof shown in FIG. 2A and FIG. 2B include SEQ ID NOs: 60-154. […]
. […] Samples were quantified after 3 d of cell culture.
Samples (2 ml) were removed from cell culture and cleared of biomass by centrifugation at 20,817 g for 2 min using an Eppendorf 5417R centrifuge. […] These samples were then analyzed on a Trace GC Ultra (Thermo Scientific) using an HP-5MS column (0.25 mm×30 m, 0.25 μM film thickness, J & W Scientific). The oven program was as follows: 75° C. for 3 min, ramp to 300° C. at 45° C. min^−1, 300° C. for 1 min. n-Butanol was quantified by flame ionization detection (FID) (flow: 350 ml min^−1 air, 35 ml min^−1 H2 and 30 ml min^−1 helium). […]

[3] = ALDH7 activity toward substrates; type: biochemical; conditions: in words
[4] = substrate: CCCC(=O)SCCNC(=O)CCNC(=O)[C@H](O)C(C)(C)COP(=O)(O)OP(=O)(O)OC[C@H]1O[C@@H](n2cnc3c(N)ncnc32)[C@H](O)[C@@H]1OP(=O)(O)O; test: purified protein, by the assay type; conditions: other: 100 μM NADH, 100 mM Tris, 1 mM DTT, pH 7.5, 30° C., mean±s.e. (n=3)
[5] = substrate: CC(=O)SCCNC(=O)CCNC(=O)[C@H](O)C(C)(C)COP(=O)(O)OP(=O)(O)OC[C@H]1O[C@@H](n2cnc3c(N)ncnc32)[C@H](O)[C@@H]1OP(=O)(O)O; test: purified protein, by the assay type; conditions: other: 100 μM NADH, 100 mM Tris, 1 mM DTT, pH 7.5, 30° C., mean±s.e. (n=3)
[6] = test system: butanediol and hydroxybutanone production pathway; test: Screen of secondary alcohol dehydrogenases in the aldh7-adh2 pathway in E. coli (FIG. 15-17); type: cell-based; conditions: in words; pathway with aldh7-adh2 and acetoacetyl-CoA reductase
Description: FIG. 16 illustrates the results of a screen of secondary alcohol dehydrogenases when expressed in the pathway described in FIG. 15. The production titers of 4-hydroxy-2-butanone (hydroxybutanone) and 1,3-butanediol (butanediol) when the illustrated secondary alcohol dehydrogenases are expressed in the pathway illustrated in FIG. 15 are shown. Data are mean±s.d. (n=3).
FIG. 17 illustrates how expression of specific proteins in the pathway described in FIG. 15 can control butanediol:hydroxybutanone ratios through pathway design. The production titers of 4-hydroxy-2-butanone (hydroxybutanone) and 1,3-butanediol (butanediol) when the illustrated proteins are expressed in the pathway illustrated in FIG. 15 are shown. Data are mean±s.d. (n=3).
Unless otherwise described, applicable materials and methods as described in this Example are analogous to those described in Example 1.
At least four SADHs enabled butanediol production of 2 g/L with hydroxybutanone production limited to 250 mg/L or less (FIG. 16). This pathway design appears preferable to enforcing specificity through an ADH that will not accept acetoacetaldehyde; acetoacetaldehyde need not be a dead end product and can still be channeled to butanediol production.

B1: ALDH16: monofunctional aldehyde dehydrogenase specific for C4 substrates (protein, listed as Clostridium beijerinckii)
chain: MNKDTLIPTTKDLKVKTNGENINLKNYKDNSSCFGVFENVENAISSAVHAQKILSLHYTKEQREKIITEIRKAALQNKEVLATMILEETHMGRYEDKILKHELVAKYTPGTEDLTTTAWSGDNGLTVVEMSPYGVIGAITPSTNPTETVICNSIGMIAAGNAVVFNGHPCAKKCVAFAVEMINKAIISCGGPENLVTTIKNPTMESLDAIIKHPSIKLLCGTGGPGMVKTLLNSGKKAIGAGAGNPPVIVDDTADIEKAGRSIIEGCSFDNNLPCIAEKEVFVFENVADDLISNMLKNNAVIINEDQVSKLIDLVLQKNNETQEYFINKKWVGKDAKLFLDEIDVESPSNVKCIICEVNANHPFVMTELMMPILPIVRVKDIDEAIKYAKIAEQNRKHSAYIYSKNIDNLNRFEREIDTTIFVKNAKSFAGVGYEAEGFTTFTIAGSTGEGITSARNFTRQRRCVLAG
butanol production [1]: 1 g/L
ethanol production [1]: 0.5 g/L
butanol:ethanol ratio [2]: favorable

B2: ALDH7: monofunctional aldehyde dehydrogenase (protein, listed as Clostridium botulinum)
chain: MERNLSVLSQTNDLKITKRTEGDKSNNKESYLGVFKKVENAITKAIYAQKKLSLYYTKEDRERIIKSIRKATLENKEILAKMIVDETHMGRYEDKILKHELVAKYTPGTEDLITTAWSGDQGLTLVEMSPYGVIGAITPSTNPTETVICNSIGMIAAGDSVVFNGHPGAKKCVAFAVDMINKAVIREGGPENLVTTVENPTMESLNVIMKHPYIKLLCGTGGPGLIKTLLNSGKKAIGAGAGNPPVIVDDSADIDKAAKNIIEGCSFDNNLPCIAEKEVFVFENVANDLIQNMIKNNAVLINENQVSKLLDLVLLERKDETLEYAINKKWVGKDAKLFLDKIGIKASDNVRCIICEVDANHPFVMTELMMPILPIVRVKDVDEAIECAKTAEQRKRHSAYMYSKNIDNLNRFEKEIDTTIFVKNAKSFAGVGFGAEGFTTFTIAGPTGEGITSARNFTRQRRCVLAG
activity toward substrates including acetoacetyl-CoA and 3-hydroxybutyryl-CoA [3]: displays activity

B3: AdhE2-ALDH (aldehyde dehydrogenase domain of bifunctional AdhE2, wild type, GI 499193180, SEQ ID NO: 41) (Clostridium acetobutylicum) (protein)
chain: MKVTNQKELKQKLNELREAQKKFATYTQEQVDKIFKQCAIAAAKERINLAKLAVEETGIGLVEDKIIKNHFAAEYIYNKYKNEKTCGIIDHDDSLGITKVAEPIGIVAAIVPTTNPTSTAIFKSLISLKTRNAIFFSPHPRAKKSTIAAAKLILDAAVKAGAPKNIIGWIDEPSIELSQDLMSEADIILATGGPSMVKAAYSSGKPAIGVGAGNTPAIIDESADIDMAVSSIILSKTYDNGVICASEQSILVMNSIYEKVKEEFVKRGSYILNQNEIAKIKETMFKNGAINADIVGKSAYIIAKMAGIEVPQTTKILIGEVQSVEKSELFSHEKLSPVLAMYKVKDFDEALKKAQRLIELGGSGHTSSLYIDSQNNKDKVKEFGLAMKTSRTFINMPSSQGASGDLYNFAIAPSFTLGCGTWGGNSVSQNVEPKHLLNIKSVAERRENMLWFKVPQKIYFKYGCLRFALKELKDMNKKRAFIVTDKDLFKLGYVNKITKVLDEIDIKYSIFTDIKSDPTIDSVKKGAKEMLNFEPDTIISIGGGSPMDAAKVMHLLYEYPEAEIENLAINFMDIRKRICNFPKLGTKAISVAIPTTAGTGSEATPFAVITNDETGMKYPLTSYELTPNMAIIDTELMLNMPRKLTAATGIDALVHAIEAYVSVMATDYTDELALRAIKMIFKYLPRAYKNGTNDIEAREKMAHASNIAGMAFANAFLGVCHSMAHKLGAMHHVPHGIACAVLIEEVIKYNATDCPTKQTAFPQYKSPNAKRKYAEIAEYLNLKGTSDTEKVTALIEAISKLKIDLSIPQNISAAGINKKDFYNTLDKMSELAFDDQCTTANPRYPLISELKDIYIKSF
Km [4]: 10 ± 1 µM
Km [5]: 100 ± 10 µM
kcat [5]: 1.3 s⁻¹
kcat/Km [5]: 13000 M⁻¹ s⁻¹

B4: SADH1: secondary alcohol dehydrogenase from Pichia kudriavzevii (protein, listed as Pichia kudriavzevii)
chain: MFMKGLTYLKPGIVSWQSIPKPVLKKPTDVIGKVVTTTICGSDLHILKGDVPETTALAATTGHGVVLGHEAIIEIESVGDAVKNFSKGDVCIVSCITSCGKCYYCKRNLQSHCTGHMEGTSGWVFGHEIDGTQAEYVRVPCADYGLYKVPEGVAYEKLLMLSDAIPTSYEIGILNGEVKEGDSVAVVGLGPVGLSALLTAINKKPKQLIAIDMDENRLDLAKQLGATHIINSTNMPNEEVAKKVQEISKDLEPGRESGVDVAIECVGVPPTFELCEDLIASGGTIANVGVHGAKVDLKLQELWIKNCKITTGLVSTYSIPDLLNQVADGSLDPSPIITHHFKFDEFEKAYQVFKDAKNTKAMKIILTP
butanediol titer [6]: maximum butanediol titer
